{
  "source": "patent US20090305946A1",
  "key": {"[1]": {"biological_target": "full-length human Presenilin-1 (human) (UniProt P49768)", "experiment": "cell-based or functional assay"}, "[2]": {"biological_target": "full-length human Presenilin-1 (human) (UniProt P49768)", "experiment": "^35S-GTPγS incorporation in extracts of co-transfected ES cells, immunoprecipitation with anti-PS-1 loop MAb, scintillation counting"}, "[3]": {"biological_target": "full-length human Presenilin-2 (human) (UniProt P49810)", "experiment": "^35S-GTPγS incorporation in extracts of co-transfected ES cells, immunoprecipitation with anti-PS MAb, scintillation counting"}, "[4]": {"biological_target": "full-length human Presenilin-1 (human) (UniProt P49768)", "experiment": "[^35S]-GTPγS labelling of extracts of co-transfected ES cells, immunoprecipitation with anti-PS-1"}, "[5]": {"biological_target": "endogenous rat PS proteins in rat hippocampal membranes", "experiment": "cell-based or functional assay"}},
  "data": [
    {"substance": "full-length human β-amyloid precursor protein (from UniProt P05067 18-770) (ligand)", "values": [
      {"measurement": "^35S-GTPγS incorporation (Gαo immunoprecipitated with K-20), high density co-culture (% increase over basal)", "setting": "[1]", "value": 200},
      {"measurement": "^35S-GTPγS incorporation (Gαo immunoprecipitated with K-20), high density co-culture with PTx (% lower than basal)", "setting": "[1]", "value": 38},
      {"measurement": "^35S-GTPγS incorporation (Gαo immunoprecipitated with K-20), low density co-culture (% increase over basal)", "setting": "[1]", "value": 33}
    ]},
    {"substance": "human G-protein GαoA (from UniProt P09471 2-354)", "values": [
      {"measurement": "^35S-GTPγS incorporation, % of untransfected control", "setting": "[2]", "value": 700, "unit": "%"},
      {"measurement": "% increase in ^35S-GTPγS binding over untransfected control", "setting": "[3]", "value": 700, "unit": "%"},
      {"measurement": "fold increase in ^35S-incorporation immunoprecipitated with antibody to PS-1", "setting": "[4]", "value": 8, "unit": "fold"}
    ]},
    {"substance": "soluble ectodomain of human β-APP, baculovirus-derived (from UniProt P05067 18-701) (ligand)", "values": [
      {"measurement": "^35S-GTPγS incorporation in solubilized rat hippocampal membranes", "setting": "[5]", "value": 600, "unit": "% increase"},
      {"measurement": "^35S-GTPγS incorporation in solubilized rat hippocampal membranes (% greater than untreated)", "setting": "[5]", "value": 100},
      {"measurement": "^35S-GTPγS incorporation (Gαo) in PS-1-only APP-/- fibroblasts", "setting": "[1]", "value": 500, "unit": "% increase"}
    ]}
  ]
}
